Source: US20260027208A1 (published 2026)

T1: KRAS G12D peptide on HLA-A*11:01 (human)
T1 peptide: VVVGADGVGK


Experiments:
[1] = biological target: T1, KRAS G12D peptide on HLA-A*11:01; experiment: activation reporter or marker
[2] = biological target: T1, KRAS G12D peptide on HLA-A*11:01; experiment: killing
Experimental: Red fluorescent Hpaf-II cells, a KRAS-G12D expressing tumor cell line transduced to express HLA-A11, were cocultured at 3:1 effector:target cell ratio with TCR32-transduced CD8⁺ T cells having wild type TRAC and TRBC loci or TCR32-transduced TRAC/TRBC double knockout (dKO) CD8⁺ T cells. Total red object integrated intensity (a measure of tumor cell volume) was evaluated over time. Red fluorescence was measured by live cell imaging using a life cell analysis system, the IncuCyte S3 microscope and software package. CD8⁺ T cell cytotoxicity is indicated by a decrease in the total red target cell area per well as compared to no treatment wells. Additional tumor cells were added at 72 and 140 hours to assess TCR-mediated tumor cell lysis by transduced T cells in the presence of persistent antigen. Reductions in tumor cells were observed when co-cultured with TCR-transduced cells (FIG. 2).

binding result [1]	Binder	binding result [2]
recognises	TCR81 (TCR, V domains shown) Valpha: AQTVTQSQPEMSVQEAETVTLSCTYDTSESDYYLFWYKQPPSRQMILVIRQEAYKQQNATENRFSVNFQKAAKSFSLKISDSQLGDAAMYFCAYCNPNAGKSTFGDGTTLTVKP Vbeta: DVKVTQSSRYLVKRTGEKVFLECVQDMDHENMFWYRQDPGLGLRLIYFSYDVKMKEKGDIPEGYSVSREKKERFSLILESASTNQTSMYLCASSFRLREGLGEQFFGPGTRLTVL	–
recognises	TCR79 (TCR, V domains shown) Valpha: QKEVEQNSGPLSVPEGAIASLNCTYSDRVSQSFFWYRQYSGKSPELIMSIYSNGDKEDGRFTAQLNKASQYVSLLIRDSQPSDSATYLCAVRWAGGTSYGKLTFGQGTILTVHP Vbeta: DTGVSQDPRHKITKRGQNVTFRCDPISEHNRLYWYRQTLGQGPEFLTYFQNEAQLEKSRLLSDRFSAERPKGSFSTLEIQRTEQGDSAMYLCATPLGRTNEQFFGPGTRLTVL	–
–	TCR32 (TCR, V domains shown) Valpha: AQTVTQSQPEMSVQEAETVTLSCTYDTSENNYYLFWYKQPPSRQMILVIRQEAYKQQNATENRFSVNFQKAAKSFSLKISDSQLGDTAMYFCAFMTPITQGGSEKLVFGKGTKLTVNP Vbeta: ETGVTQSPTHLIKTRGQQVTLRCSSQSGHNTVSWYQQALGQGPQFIFQYYREEENGRGNFPPRFSGLQFPNYSSELNVNALELDDSALYLCASSDRGWNEQFFGPGTRLTVL	recognises
